Results published in US20050227296A1, “Method for indentifying integrin antagonists” (The General Hospital Corporation, a Massachusetts …, priority 1988, published 2005).

Experiments:
[1] = molecular target: T1, EAiC3b (erythrocytes coated with iC3b) (Homo sapiens, UniProt P01024); test: Erythrocyte binding assay, EAiC3b on immobilized proteins or peptides
T1 construct: EAiC3b (erythrocytes coated with iC3b) were generated by treating EAC3b with purified human factors H and I; tissue Sigma Chemical Co. (C5-deficient human serum); host or cells: human serum C3 deposited on IgM-coated erythrocytes
Method: (§1) Erythrocytes (E) coated with rabbit anti-E IgM (EA) or C3b (EAC3b) were prepared as described by Dana et al. (J. Immunol. 73:153, 1984). EAiC3b (erythrocytes coated with iC3b) were generated by treating EAC3b with purified human factors H and I, or alternatively prepared from EA using C5-deficient human serum (Sigma Chemical Co., St. Louis, Mo.). EAiC3b cells were washed and stored in isotonic veronal-buffered saline (VBS^2+), pH 7.4, containing 0.15 mM calcium-1 mM magnesium (MgCl2+CaCl2) and 1 mg/ml Soybean Trypsin Inhibitor (STI; Worthington Biochemical Co., Freehold, N.J.) at 1.5×10^8 cells/ml. EA, EAC3b or EAiC3b were labeled with 5-(and-6)-carboxy fluorescein (Molecular Probes, Eugene, Oreg.) as described by Michishita et al. (Cell 72:857, 1993).
Immobilization of recombinant proteins and peptides: Purified recombinant A-domain was added to Immulon-2 96-well microtiter plates (Dynatech) overnight. Wells were then washed once with phosphate-buffered-saline, pH 7.4 without metals, and blocked with 1% BSA at room temperature (RT) for one hour, followed by two washings with buffer A (composed of 60% GVBS:VBS^2+ mixed in a 1:3 ratio; Arnaout et al., in Complement Receptor Type 3 at 602-615, Academic Press, FL) containing 1 mM MnCl2 or MgCl2+CaCl2. All the peptides were stocked at 1 mg/ml in water and similarly adsorbed to Immulon-2 96-well plates. Binding of the anti-CD11b mabs to the coated rA-domain was measured by ELISA and read using a plate reader (Molecular Dynamics).
Erythrocyte binding assays: Fluoresceinated EAiC3b, EAC3b or EA were resuspended to 1.5×10^8/ml in buffer A, and added […] to wells containing immobilized proteins or peptides in a total volume of […]. The plates were then briefly centrifuged to settle the erythrocytes, and allowed to incubate at 37° C. for 15 minutes in a humidified incubator with 5% CO2. For the inhibition studies, E were preincubated with each recombinant protein or pure peptide in the presence of 2% BSA for 5 minutes at RT and added to wells coated with immobilized protein or peptide without washing, unless otherwise indicated. At the end of the binding reactions, wells were washed, examined briefly by light microscopy then solubilized with 1% SDS-0.2 N NaOH. Fluorescence was quantified (excitatory wavelength, 490 nm, emission wavelength, 510 nm) using a SLM 8000 fluorometer (SLM Instruments, Urbana, Ill.). In experiments where the effects of individual divalent cations were measured, Ca^2+ and Mg^2+ were replaced with metal-free buffers or with buffers containing each cation at […], unless otherwise indicated. The effect of temperature was evaluated in the presence of 1 mM MnCl2 at 37° C. and at 4° C.

[2] = molecular target: T2, fibrinogen (Homo sapiens, UniProt P02671+P02675+P02679); test: A domain binding to fibrinogen
T2 sequence (P02671 20-629 limits assumed): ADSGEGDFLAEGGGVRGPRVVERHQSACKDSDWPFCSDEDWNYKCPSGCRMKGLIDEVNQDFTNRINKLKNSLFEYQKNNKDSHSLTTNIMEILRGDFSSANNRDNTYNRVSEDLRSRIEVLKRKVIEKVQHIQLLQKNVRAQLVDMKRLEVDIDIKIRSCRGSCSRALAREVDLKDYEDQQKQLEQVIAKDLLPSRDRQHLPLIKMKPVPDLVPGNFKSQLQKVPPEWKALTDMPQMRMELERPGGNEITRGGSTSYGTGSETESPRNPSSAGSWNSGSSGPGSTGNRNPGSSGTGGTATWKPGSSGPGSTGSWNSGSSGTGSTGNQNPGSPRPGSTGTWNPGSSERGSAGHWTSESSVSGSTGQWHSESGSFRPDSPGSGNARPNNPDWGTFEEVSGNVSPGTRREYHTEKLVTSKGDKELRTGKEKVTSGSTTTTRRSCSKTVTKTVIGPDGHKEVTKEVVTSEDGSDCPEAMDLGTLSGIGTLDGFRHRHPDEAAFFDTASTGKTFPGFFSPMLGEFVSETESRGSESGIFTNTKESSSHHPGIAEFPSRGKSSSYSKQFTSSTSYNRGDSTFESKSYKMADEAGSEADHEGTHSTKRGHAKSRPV
T2 sequence (P02675 31-491): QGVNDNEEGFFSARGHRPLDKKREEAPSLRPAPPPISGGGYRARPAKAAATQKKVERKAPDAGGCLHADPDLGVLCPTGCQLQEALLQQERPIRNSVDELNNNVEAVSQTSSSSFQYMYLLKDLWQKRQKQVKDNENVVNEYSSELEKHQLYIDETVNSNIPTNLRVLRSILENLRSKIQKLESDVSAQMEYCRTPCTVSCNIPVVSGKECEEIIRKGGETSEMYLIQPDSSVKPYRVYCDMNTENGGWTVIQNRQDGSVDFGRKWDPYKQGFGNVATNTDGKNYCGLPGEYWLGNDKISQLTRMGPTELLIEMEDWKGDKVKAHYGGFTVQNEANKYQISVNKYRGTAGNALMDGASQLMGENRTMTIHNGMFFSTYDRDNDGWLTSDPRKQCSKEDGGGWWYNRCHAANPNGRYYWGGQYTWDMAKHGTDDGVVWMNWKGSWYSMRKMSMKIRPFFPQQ
T2 sequence (P02679 27-453): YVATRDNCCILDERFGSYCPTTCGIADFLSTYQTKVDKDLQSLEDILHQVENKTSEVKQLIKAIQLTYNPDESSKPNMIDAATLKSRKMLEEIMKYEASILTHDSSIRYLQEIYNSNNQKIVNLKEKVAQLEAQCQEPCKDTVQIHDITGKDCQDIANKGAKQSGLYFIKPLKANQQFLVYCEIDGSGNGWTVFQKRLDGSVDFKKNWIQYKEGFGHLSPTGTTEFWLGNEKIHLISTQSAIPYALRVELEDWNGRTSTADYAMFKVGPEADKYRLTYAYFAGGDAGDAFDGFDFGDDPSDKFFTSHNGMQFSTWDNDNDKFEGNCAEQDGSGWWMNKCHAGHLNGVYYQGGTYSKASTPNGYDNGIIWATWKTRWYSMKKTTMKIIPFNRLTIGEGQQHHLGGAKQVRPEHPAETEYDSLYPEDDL

[3] = system: gelatin; test: A domain binding to gelatin
[4] = molecular target: EAC3b (Homo sapiens, UniProt P01024); test: Erythrocyte binding assay, EAC3b on immobilized protein
Method: as §1, with “EA, EAC3b or EAiC3b were labeled with 5-(and-6)-carboxy fluorescein (Molecular Probes, Eugene, Oreg.) as described by Michishita et al. (Cell 72:857, 1993).” left out
Immobilization of recombinant proteins and peptides: Purified recombinant A-domain was added to Immulon-2 96-well microtiter plates (Dynatech) overnight. […] Binding of the anti-CD11b mabs to the coated rA-domain was measured by ELISA and read using a plate reader (Molecular Dynamics).
Erythrocyte binding assays: Fluoresceinated EAiC3b, EAC3b or EA were resuspended to 1.5×10^8/ml in buffer A, and added […] to wells containing immobilized proteins or peptides in a total volume of 100 ml. […] Fluorescence was quantified (excitatory wavelength, 490 nm, emission wavelength, 510 nm) using a SLM 8000 fluorometer (SLM Instruments, Urbana, Ill.). […] The effect of temperature was evaluated in the presence of 1 mM MnCl2 at 37° C. and at 4° C.

T1 sequence (P01024 749-1303 limits assumed): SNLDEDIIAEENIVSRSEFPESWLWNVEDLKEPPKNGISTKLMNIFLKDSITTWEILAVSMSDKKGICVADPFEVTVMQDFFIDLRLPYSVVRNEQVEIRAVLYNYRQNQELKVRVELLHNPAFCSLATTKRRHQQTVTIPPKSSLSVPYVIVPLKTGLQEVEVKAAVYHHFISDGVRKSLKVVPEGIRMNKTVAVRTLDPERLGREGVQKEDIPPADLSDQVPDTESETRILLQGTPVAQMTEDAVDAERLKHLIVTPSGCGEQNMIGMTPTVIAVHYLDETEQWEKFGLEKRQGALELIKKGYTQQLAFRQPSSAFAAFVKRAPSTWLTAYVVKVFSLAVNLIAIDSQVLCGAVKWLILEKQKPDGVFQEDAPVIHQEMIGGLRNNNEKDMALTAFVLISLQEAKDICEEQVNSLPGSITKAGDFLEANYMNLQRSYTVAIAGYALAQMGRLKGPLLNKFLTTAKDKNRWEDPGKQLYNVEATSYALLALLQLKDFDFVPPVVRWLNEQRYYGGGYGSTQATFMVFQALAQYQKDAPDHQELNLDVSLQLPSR
T1 sequence (P01024 23-667 partner limits assumed): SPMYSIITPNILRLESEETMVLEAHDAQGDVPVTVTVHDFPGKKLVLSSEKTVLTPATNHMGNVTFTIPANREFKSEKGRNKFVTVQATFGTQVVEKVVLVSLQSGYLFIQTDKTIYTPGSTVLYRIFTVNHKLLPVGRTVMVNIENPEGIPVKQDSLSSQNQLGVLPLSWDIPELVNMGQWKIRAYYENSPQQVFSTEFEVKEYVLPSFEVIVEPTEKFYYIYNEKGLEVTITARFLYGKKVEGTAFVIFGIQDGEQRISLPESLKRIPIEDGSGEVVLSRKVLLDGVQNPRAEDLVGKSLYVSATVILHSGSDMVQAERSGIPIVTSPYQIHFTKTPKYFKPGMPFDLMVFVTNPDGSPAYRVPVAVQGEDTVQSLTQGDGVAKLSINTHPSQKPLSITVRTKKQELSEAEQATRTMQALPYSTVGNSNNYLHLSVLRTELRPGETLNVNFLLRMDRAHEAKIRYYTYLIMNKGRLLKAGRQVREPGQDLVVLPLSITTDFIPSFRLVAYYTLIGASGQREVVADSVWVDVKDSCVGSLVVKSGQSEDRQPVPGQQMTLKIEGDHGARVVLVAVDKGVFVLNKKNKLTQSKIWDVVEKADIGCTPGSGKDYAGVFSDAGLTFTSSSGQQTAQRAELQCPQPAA
T1 sequence (P01024 1321-1663 partner limits assumed): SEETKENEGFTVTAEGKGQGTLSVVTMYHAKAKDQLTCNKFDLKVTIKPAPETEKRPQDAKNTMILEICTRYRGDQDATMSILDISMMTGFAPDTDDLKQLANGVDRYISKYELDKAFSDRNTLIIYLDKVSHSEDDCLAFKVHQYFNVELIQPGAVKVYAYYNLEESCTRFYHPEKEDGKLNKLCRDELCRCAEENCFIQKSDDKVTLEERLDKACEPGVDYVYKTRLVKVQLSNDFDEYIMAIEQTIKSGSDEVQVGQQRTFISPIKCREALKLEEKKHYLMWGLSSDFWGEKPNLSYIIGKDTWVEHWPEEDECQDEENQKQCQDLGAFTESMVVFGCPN
Chain of EAC3b (P01024 749-1663 limits assumed): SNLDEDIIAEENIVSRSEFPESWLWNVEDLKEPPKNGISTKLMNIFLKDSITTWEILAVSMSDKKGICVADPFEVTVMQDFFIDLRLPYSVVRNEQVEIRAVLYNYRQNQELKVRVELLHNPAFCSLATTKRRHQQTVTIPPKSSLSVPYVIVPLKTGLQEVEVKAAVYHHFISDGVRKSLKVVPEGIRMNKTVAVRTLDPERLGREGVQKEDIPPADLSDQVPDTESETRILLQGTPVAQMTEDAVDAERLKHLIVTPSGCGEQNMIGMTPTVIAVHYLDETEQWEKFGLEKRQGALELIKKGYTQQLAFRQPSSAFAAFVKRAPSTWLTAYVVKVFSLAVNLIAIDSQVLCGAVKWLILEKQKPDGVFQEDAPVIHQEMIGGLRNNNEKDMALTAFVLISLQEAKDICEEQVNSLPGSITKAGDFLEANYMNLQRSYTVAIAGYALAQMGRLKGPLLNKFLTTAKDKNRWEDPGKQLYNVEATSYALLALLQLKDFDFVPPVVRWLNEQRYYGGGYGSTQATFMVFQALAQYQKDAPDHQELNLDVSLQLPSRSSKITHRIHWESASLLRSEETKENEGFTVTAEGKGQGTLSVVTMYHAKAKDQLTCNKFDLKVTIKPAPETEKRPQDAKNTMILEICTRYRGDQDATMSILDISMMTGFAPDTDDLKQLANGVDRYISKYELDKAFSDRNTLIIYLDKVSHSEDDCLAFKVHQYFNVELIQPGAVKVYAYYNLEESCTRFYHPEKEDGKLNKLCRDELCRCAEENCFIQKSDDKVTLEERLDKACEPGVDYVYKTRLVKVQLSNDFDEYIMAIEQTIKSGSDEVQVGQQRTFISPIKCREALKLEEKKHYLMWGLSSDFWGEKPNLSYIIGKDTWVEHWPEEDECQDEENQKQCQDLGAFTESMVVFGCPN
Chain of EAC3b (P01024 23-667 partner limits assumed): as the sequence (P01024 23-667 partner limits assumed) above

r11bA: recombinant human CD11b A domain (Cys128 to Glu321), expressed as GST fusion protein, used as such or after thrombin cleavage
binding of the A domain to iC3b [1]: binds | EAiC3b binding to rA-domain with MnCl2, MgCl2 or MgCl2 plus CaCl2 ([1]; 1 mM MnCl2, 1 mM MgCl2 or 1 mM MgCl2 and 0.15 mM CaCl2): supported | temperature dependency of EAiC3b binding to rA-domain ([1]; 37° C. and 4° C., 1 mM MnCl2): temperature-independent | direct binding of EAiC3b to immobilized protein or peptide ([1]; 37° C., divalent cations): bound | EAiC3b binding to rA-domain with CaCl2 alone ([1]; CaCl2 alone (0.15-1 mM)): ineffective | EAiC3b binding to rA-domain, divalent cations omitted or EDTA included ([1]; no divalent cations or EDTA): No specific binding | binding of the A domain to fibrinogen [2]: binds | binding of the A domain to gelatin [3]: binds | binding of EAC3b to immobilized protein [4]: not
